Data as given in patent US20240287172A1 (SCIRHOM, published 2024).

T1: human iRhom1, endogenously expressed (human, UniProt Q96CC6 1-855)
T1 construct: also called iRhom1 on RH-30 cells
T1 sequence: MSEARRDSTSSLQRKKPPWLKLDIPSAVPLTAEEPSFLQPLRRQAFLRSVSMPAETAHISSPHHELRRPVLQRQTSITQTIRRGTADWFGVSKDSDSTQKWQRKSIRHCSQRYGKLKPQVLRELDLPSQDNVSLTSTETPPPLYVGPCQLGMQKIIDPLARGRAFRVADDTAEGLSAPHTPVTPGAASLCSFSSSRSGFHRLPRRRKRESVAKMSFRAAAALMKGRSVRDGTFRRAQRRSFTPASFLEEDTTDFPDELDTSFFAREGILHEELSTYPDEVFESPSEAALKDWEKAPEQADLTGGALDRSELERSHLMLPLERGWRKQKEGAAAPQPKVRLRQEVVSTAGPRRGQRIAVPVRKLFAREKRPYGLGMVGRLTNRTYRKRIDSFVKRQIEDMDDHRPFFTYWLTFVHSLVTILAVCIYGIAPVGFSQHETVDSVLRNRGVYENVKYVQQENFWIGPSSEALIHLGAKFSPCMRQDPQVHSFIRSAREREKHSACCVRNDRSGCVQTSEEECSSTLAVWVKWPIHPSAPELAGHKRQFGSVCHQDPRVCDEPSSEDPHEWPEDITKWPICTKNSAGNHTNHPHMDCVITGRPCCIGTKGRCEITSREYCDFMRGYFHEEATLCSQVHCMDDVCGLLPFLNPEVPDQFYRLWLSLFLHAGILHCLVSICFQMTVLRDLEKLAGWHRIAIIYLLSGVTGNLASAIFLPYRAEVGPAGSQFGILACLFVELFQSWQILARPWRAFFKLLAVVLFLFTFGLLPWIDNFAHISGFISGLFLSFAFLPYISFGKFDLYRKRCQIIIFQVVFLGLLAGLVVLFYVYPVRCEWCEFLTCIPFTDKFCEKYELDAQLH

T2: hiR2-FL-L438S-T7 (human, UniProt Q6PJF5 1-856)
T2 sequence: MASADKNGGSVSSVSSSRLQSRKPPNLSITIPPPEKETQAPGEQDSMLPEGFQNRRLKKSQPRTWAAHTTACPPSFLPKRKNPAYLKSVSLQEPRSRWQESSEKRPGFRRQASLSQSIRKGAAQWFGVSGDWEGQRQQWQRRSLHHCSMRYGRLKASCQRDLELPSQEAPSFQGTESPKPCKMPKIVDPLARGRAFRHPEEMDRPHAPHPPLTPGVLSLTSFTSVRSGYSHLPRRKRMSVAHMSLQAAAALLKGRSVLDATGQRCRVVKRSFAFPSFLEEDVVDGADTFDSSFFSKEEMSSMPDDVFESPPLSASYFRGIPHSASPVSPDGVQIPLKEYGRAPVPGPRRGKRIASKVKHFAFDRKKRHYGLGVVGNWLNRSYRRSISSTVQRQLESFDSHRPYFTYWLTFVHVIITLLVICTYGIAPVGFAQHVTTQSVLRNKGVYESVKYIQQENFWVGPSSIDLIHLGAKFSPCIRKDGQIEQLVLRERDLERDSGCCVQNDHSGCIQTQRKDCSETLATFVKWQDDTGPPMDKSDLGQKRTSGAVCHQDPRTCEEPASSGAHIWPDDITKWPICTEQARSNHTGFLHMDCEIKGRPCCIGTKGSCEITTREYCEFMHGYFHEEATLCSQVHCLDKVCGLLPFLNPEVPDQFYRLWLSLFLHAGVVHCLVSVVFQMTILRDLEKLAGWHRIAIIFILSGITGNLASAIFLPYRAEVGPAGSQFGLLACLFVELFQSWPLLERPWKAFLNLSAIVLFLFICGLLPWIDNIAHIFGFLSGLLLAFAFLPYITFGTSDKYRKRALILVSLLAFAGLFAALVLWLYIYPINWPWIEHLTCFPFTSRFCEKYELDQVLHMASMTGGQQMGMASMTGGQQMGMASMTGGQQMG

B1: antibody 16 (antibody, V domains shown)
VH: QVTLKESGPGILQPSQTLSLTCSFSGFSLSTFALGVGWIRQPSGRGLEWLAHIWWDDDKYYNPALKSRLTISKDTSKNHVFLKIANVDTADTATYYCARITTYYYGMDYWGQGTSVTVSS
VL: DIVLSQSPATLSVTPGDSVSLFCRASQSIGNHLHWYQQESHASPRLLIKYASQSISGIPSRFSGSGSGTDFTLSINSVETEDFGMYFCQQSYNWPLTFGAGTKLELK
notes: mouse IgG, kappa light chain; also called clone #16; purified antibody 16
B2: antibody 50 (antibody, V domains shown)
VH: QVQLQQSGAELVRPGASVKVSCKASGYAFSNYLIEWVKQRPGQGLEWIGVINPGSGFTKYNEKFKGKATLTADKSSSTAYMQLSSLTSEDSAVYFCARGLYRAMDYWGQGTSVTVSS
VL: DIQMTQSPASQSASLGESVTITCLASQTIGTWLAWYQQKPGKSPQLLIYAAASLADGVPSRFSGGGSGTKFSFKISSLQAEDFVNYYCQQIYSTPYTFGGGTKLEIK
notes: mouse IgG, kappa light chain; also called clone #50; purified antibody 50

What was measured:
[1] = biological target: T1, human iRhom1, endogenously expressed; assay: FACS on RH-30 cells (iRhom1-positive, not iRhom2-positive)
hiR2-FL-L438S-T7 = biological target: T2, hiR2-FL-L438S-T7; assay: FACS, MEF-DKO cells, 3 µg/ml

Binder | binding result [1] | loss of binding vs wild type (hiR2-FL-L438S-T7)
B1 | no binding (tested: 3 µg/ml) | 
B2 |  | ≥ 30%
